Measurements published in patent US20190062420A1 (Janssen / Centocor, published 2019).

T1: human FcγRIIB (NM_004001) expressed on cells (human, UniProt P31994 43-310)
T1 construct: Transiently expressed on Expi293F cells; also called Expi293F FcγRIIB; HEK293F cells expressing FcγRIIB
T1 sequence: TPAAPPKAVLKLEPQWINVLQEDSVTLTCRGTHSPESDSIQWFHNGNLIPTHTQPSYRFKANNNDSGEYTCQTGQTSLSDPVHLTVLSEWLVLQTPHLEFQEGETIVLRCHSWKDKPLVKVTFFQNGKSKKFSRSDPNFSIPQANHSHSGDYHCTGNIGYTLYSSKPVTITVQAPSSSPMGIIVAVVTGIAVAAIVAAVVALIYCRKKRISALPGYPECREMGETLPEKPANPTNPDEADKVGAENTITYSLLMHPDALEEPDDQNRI

T2: human OX40 expressed on HEK-Blue: OX40 cells (human, UniProt P43489 29-277)
T2 construct: also called CD134
T2 sequence: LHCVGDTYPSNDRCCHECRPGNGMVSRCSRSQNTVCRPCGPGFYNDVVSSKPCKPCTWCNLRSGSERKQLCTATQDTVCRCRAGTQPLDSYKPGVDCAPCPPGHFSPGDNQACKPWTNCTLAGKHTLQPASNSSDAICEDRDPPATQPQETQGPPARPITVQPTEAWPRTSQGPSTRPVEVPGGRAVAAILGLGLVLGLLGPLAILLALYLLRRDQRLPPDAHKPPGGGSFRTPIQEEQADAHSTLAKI

T3: human FcγRIIA (NM_021642) expressed on cells (human, UniProt P12318 36-317)
T3 sequence: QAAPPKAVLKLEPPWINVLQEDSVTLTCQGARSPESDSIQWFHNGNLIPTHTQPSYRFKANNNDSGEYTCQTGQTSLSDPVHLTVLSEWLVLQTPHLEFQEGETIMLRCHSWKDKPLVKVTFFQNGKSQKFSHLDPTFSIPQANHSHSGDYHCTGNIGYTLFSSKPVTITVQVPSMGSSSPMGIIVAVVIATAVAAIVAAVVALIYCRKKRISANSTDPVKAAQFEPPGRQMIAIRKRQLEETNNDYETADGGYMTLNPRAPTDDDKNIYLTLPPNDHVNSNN

B1: OX40SF2IgG2sigma_R2BS56_HC-C (bispecific antibody)
heavy: QVQLVQSGAEVKKPGSSVKVSCKASGYTFKDYTMHWVRQAPGQGLEWIGGIYPNNGGSTYNQNFKDRVTLTADKSTSTAYMELSSLRSEDTAVYYCARMGYHGPHLDFDVWGQGTTVTVSSASTKGPSVFPLAPCSRSTSESTAALGCLVKDYFPEPVTVSWNSGALTSGVHTFPAVLQSSGLYSLSSVVTVPSSNFGTQTYTCNVDHKPSNTKVDKTVERKCCVECPPCPAPPAAASSVFLFPPKPKDTLMISRTPEVTCVVVDVSAEDPEVQFNWYVDGVEVHNAKTKPREEQFNSTFRVVSVLTVLHQDWLNGKEYKCKVSNKGLPSSIEKTISKTKGQPREPQVYTLPPSREEMTKNQVSLTCLVKGFYPSDIAVEWESNGQPENNYKTTPPMLDSDGSFFLYSKLTVDKSRWQQGNVFSCSVMHEALHNHYTQKSLSLSPGKGGGGGSGGGGSGGGGSGGGGSLPAPKNLVVSRVTEDSARLSWTAPDAAFDSFSIAYWEYRKGGEAIVLTVPGSERSYDLTGLKPGTEYFVLIYGVKGGWQSKPLSAIFTT
light: DIQMTQSPSSLSASVGDRVTITCKASQDVGAAVAWYQQKPGKAPKLLIYWASTRHTGVPSRFSGSGSGTDFTLTISSLQPEDFATYYCQQYINYPLTFGGGTKVEIKRTVAAPSVFIFPPSDEQLKSGTASVVCLLNNFYPREAKVQWKVDNALQSGNSQESVTEQDSKDSTYSLSSTLTLSKADYEKHKVYACEVTHQGLSSPVTKSFNRGEC
notes: mAbtyrin: anti-OX40 antibody OX40SF2, effector silent IgG2sigma, with linker and R2BS56 FN3 domain at the C-terminus of the heavy chain; also called mAbtyrin
B2: OX40SF2IgG2sigma_R2BS6_HC-C (bispecific antibody)
heavy: QVQLVQSGAEVKKPGSSVKVSCKASGYTFKDYTMHWVRQAPGQGLEWIGGIYPNNGGSTYNQNFKDRVTLTADKSTSTAYMELSSLRSEDTAVYYCARMGYHGPHLDFDVWGQGTTVTVSSASTKGPSVFPLAPCSRSTSESTAALGCLVKDYFPEPVTVSWNSGALTSGVHTFPAVLQSSGLYSLSSVVTVPSSNFGTQTYTCNVDHKPSNTKVDKTVERKCCVECPPCPAPPAAASSVFLFPPKPKDTLMISRTPEVTCVVVDVSAEDPEVQFNWYVDGVEVHNAKTKPREEQFNSTFRVVSVLTVLHQDWLNGKEYKCKVSNKGLPSSIEKTISKTKGQPREPQVYTLPPSREEMTKNQVSLTCLVKGFYPSDIAVEWESNGQPENNYKTTPPMLDSDGSFFLYSKLTVDKSRWQQGNVFSCSVMHEALHNHYTQKSLSLSPGKGGGGGSGGGGSGGGGSGGGGSLPAPKNLVVSRVTEDSARLSWTAPDAAFDSFLIQYQESEKVGEAIVLTVPGSERSYDLTGLKPGTEYTVSIYGVQYAAWYLPRHHEASNPLSAIFTT
light: B1 light
notes: mAbtyrin: anti-OX40 antibody OX40SF2, effector silent IgG2sigma, with linker and R2BS6 FN3 domain at the C-terminus of the heavy chain; also called mAbtyrin
B3: OX40SF2IgG2sigma_R2BS39_HC-C (bispecific antibody)
heavy: QVQLVQSGAEVKKPGSSVKVSCKASGYTFKDYTMHWVRQAPGQGLEWIGGIYPNNGGSTYNQNFKDRVTLTADKSTSTAYMELSSLRSEDTAVYYCARMGYHGPHLDFDVWGQGTTVTVSSASTKGPSVFPLAPCSRSTSESTAALGCLVKDYFPEPVTVSWNSGALTSGVHTFPAVLQSSGLYSLSSVVTVPSSNFGTQTYTCNVDHKPSNTKVDKTVERKCCVECPPCPAPPAAASSVFLFPPKPKDTLMISRTPEVTCVVVDVSAEDPEVQFNWYVDGVEVHNAKTKPREEQFNSTFRVVSVLTVLHQDWLNGKEYKCKVSNKGLPSSIEKTISKTKGQPREPQVYTLPPSREEMTKNQVSLTCLVKGFYPSDIAVEWESNGQPENNYKTTPPMLDSDGSFFLYSKLTVDKSRWQQGNVFSCSVMHEALHNHYTQKSLSLSPGKGGGGGSGGGGSGGGGSGGGGSLPAPKNLVVSRVTEDSARLSWTAPDAAFDSFLIQYQESEKVGEAIVLTVPGSERSYDLTGLKPGTEYTVSIYGVSHGPWYNYGEWRSNPLSAIFTT
light: B1 light
notes: mAbtyrin: anti-OX40 antibody OX40SF2, effector silent IgG2sigma, with linker and R2BS39 FN3 domain at the C-terminus of the heavy chain; also called mAbtyrin

How the values were obtained:
[1] = molecular target: T1, human FcγRIIB (NM_004001) expressed on …; assay: flow cytometry; Raji cells (express predominantly FcγRIIB)
Method: (§1) 2×10⁵ cells per well were seeded in 96-well plate and blocked in BSA Stain Buffer (BD Biosciences, San Jose, USA) for 30 min at 4° C. Cells were incubated with test mAbtyrin on ice for 1.5 h at 4° C. After being washed twice with BSA stain buffer, the cells were incubated with R-PE labeled anti-human or anti-mouse IgG secondary antibody (Jackson Immunoresearch Laboratories) for 45 min at 4° C. The cells were washed twice in stain buffer and then resuspended in 150 μL of Stain Buffer containing 1:200 diluted DRAQ7 live/dead stain (Cell Signaling Technology, Danvers, USA). PE and DRAQ7 signals of the stained cells were detected by Miltenyi MACSQuant flow cytometer (Miltenyi Biotec, Auburn, USA) using B2 and B4 channel respectively. Live cells were gated on DRAQ7 exclusion and the geometric mean fluorescence signals were determined for at least 10,000 live events collected. FlowJo software (Tree Star) was used for analysis. Data was plotted as the logarithm of antibody concentration versus mean fluorescence signals. Nonlinear regression analysis was performed by GraphPad Prism 6 (GraphPad Software, Inc.) and EC₅₀ values were calculated.
Raji cell is a cell line derived from B cells that express predominantly FcγRIIB. The binding of mAbtyrins on Raji cells were investigated by flow cytometry assay described for testing mAbtyrin binding to FcγR. Binding of the mAbtyrins were detected by flow cytometry using a PE-labeled Goat F(ab′) against Human IgG(γ).

[2] = molecular target: T1, human FcγRIIB (NM_004001) expressed on …; assay: as above; remark: listed apart in the source
[3] = molecular target: T2, human OX40 expressed on HEK-Blue: OX40 …; assay: flow cytometry; HEK-Blue: OX40 cells
Method: as §1
The binding of mAbtyrins on OX40 expressed on cell surface were investigated by flow cytometry assay described for testing mAbtyrin binding to FcγR. A stable HEK-Blue reporter cell line expressing human OX40 (HEK-Blue: OX40) was established by transfection OX40 expression plasmid (pUNO1-hOX40) into HEK-Blue™ Null 1 cells engineered to express a secreted embryonic alkaline phosphatase (SEAP) reporter gene under the control of NF-κB-inducible promoter (IFN-β minimal promoter). mAbtyrins were incubated with HEK-Blue: OX40 cells and the binding was detected by flow cytometry using a PE-labeled Goat F(ab′)₂ against Human IgG(γ).

[4] = molecular target: T1, human FcγRIIB (NM_004001) expressed on …; assay: flow cytometry; Expi293F cells transfected with FcγRIIB
Method: (§2) Plasmids expressing cDNAs encoding human FcγRI (NM_000566) (SEQ ID NO: 44), FcγRIIA (NM_021642) (SEQ ID NO: 2), FcγRIIB (NM_004001) (SEQ ID NO: 3), and FcγRIIIA (NM_000569) (SEQ ID NO: 45) (Origene) were transiently transfected into Expi293F cells by ExpiFectamine293 transfection kit (Life Technologies). Flow cytometry assays were performed 48 h after transfection.
as §1

[5] = molecular target: T3, human FcγRIIA (NM_021642) expressed on …; assay: cell-based or functional assay
[6] = molecular target: T1, human FcγRIIB (NM_004001) expressed on …; assay: cell-based or functional assay
[7] = molecular target: T3, human FcγRIIA (NM_021642) expressed on …; assay: flow cytometry; Expi293F cells transfected with FcγRIIA
Method: as §2, §1

Binder	Binding to Raji cells mean signals at 10 µg/ml [1] [mean fluorescence signal]	EC50 [1] [µg/mL]	fold binding signal over OX40SF2IgG2sigma at 10 µg/mL [2] [fold]	Binding to HEK-Blue: OX40 cells (mean signal at 1 µg/ml) [3] [mean fluorescence signal]	EC50 [4] [µg/mL]	% OX40 cell killed by macrophages (ADCP, 1 µg/ml) [5] [%]	% activity at 1 µg/ml with Raji cells (HEK-Blue: OX40 NF-κB reporter, relative to 1 µg/ml OX40 ligand) [6] [%]	fold of agonism enhancement upon crosslinking (Raji cells) [6] [fold]	EC50 [7] [µg/mL]
B1	9120	9.91	≥ 6	16900	1.05	91	107	15	0.287
B2	5380	> 10	≥ 6	10400	1.56	82	83.5	17	0.7
B3	8220	> 10	≥ 6	9320	1.87	83	99.5	24	0.532
